Test results: the nanobody polyreactivity screen of Harvey et al. (2022)

Assay: yeast display, Sf9 membrane polyspecificity reagent, FACS + sequencing; frameworks hold sequencing errors
Outline: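 Galactose-induced (36–48 hours) yeast carrying a synthetic nanobody display library were exposed to 10% biotinylated, detergent-solubilized Sf9 membrane reagent at 4 °C for 1 hour. FACS followed streptavidin microbead enrichment, using low and high (top ~1%) gates for expression (anti-HA) and reagent binding (streptavidin). Colony PCR, MiSeq 2 × 250 sequencing and CDR-length filtering followed. Labels for polyreactivity reflect the gate of origin.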

| Sequence | polyreactivity (PSR sort gate) |
| --- | --- |
| QVQLVESGGGLVQAGGSLRLSCAASGLIFTVNAMGWYRQAPGKERELVAAISQSGGSTYYADSVKGRFTISRDNAKNTVYLQMNSLKPEDTAVYYCARGSWRHFRLYGFDYWGQGTQLTVSS | low polyreactivity |
| QVQLVESGGGLVQAGGSLRLSCAASGLIFTWNAMGWYRQAPGKERELVAAISTGGSTSYADSVKGRFTISRDNAKNTVYLQMNSLKPEDTAVYYCARDSSIWSHGSWYDYWGQGTQVTVSS | low polyreactivity |
| QVQLVESGGGLVQAGGSLRLSCAASGLIFTYYAMGWYRQAPGKERELVAGISSGTNTNYADSVKGRFTISRDNAKNTVYLQMNSLKPEDTALYYCATTRGYQFVAYGYWGQGTQVTVSS | low polyreactivity |
| QVQLVESGGGLVQAGGSLRLSCAASGLIFTYYAMGWYRQAPGKERELVAGISSGTNTNYADSVKGRFTISRDNAKNTVYLQMNSLKPEDTAVYYCAKTRGYQFVAYGYWGQGTQVTVSS | low polyreactivity |
| QVQLVESGGGLVQAGGSLRLSCAASGLIFTYYTMGWYRQEPGTERELVATINWNTSSTYYADSVKGRFTISRDNAKNTVYLQMNSLKPEDTAVYYCNKRIAESDTTVTYDYWGQGTQVTVSS | low polyreactivity |
| QVQLVESGGGLVQAGGSLRLSCAASGLIFVANAMGWYRQAPGKERELVAAISRSGGITTYADSVKGRFTISRDNAKNTVYLQMNSLKPEDTAVYYCAADTDPNPLIDYTLPMDYWGQGTQVTVSS | low polyreactivity |
| QVQLVESGGGLVQAGGSLRLSCAASGLIFVNNPMGWYRQAPGKERELVAAISWSTGGSTYYADSVKGRFTISRDNAKNSVYLQMNSLKPEDTAVYYCAAQYSYGEYWGYDYWGQGTQVTVSS | low polyreactivity |
| QVQLVESGGGLVQAGGSLRLSCAASGLIFVPYAMGWYRQAPGKERELVAAINSGATTYYADSVKGRFTISRDNAKNTVYLQMNSLKPEDTAVYYCNAEYPVYVYWFDYWGQGTQVTVSS | high polyreactivity |
| QVQLVESGGGLVQAGGSLRLSCAASGLIFVQNAMGWYRQAPGKEREFVAAISAGGTRTYYADSVKGRFTISRDNAKNTVYLQMNSVKPEDTAVYYCAAASGYDYWGQGTQGTVSS | high polyreactivity |
| QVQLVESGGGLVQAGGSLRLSCAASGLIFVQNAMGWYRQAPGKERELVAAISSRGTNTYYADSVKGRFTISRDNAKNTVYLQMNSLKPEDTAVYYCAKPLKTPRPNYDYWGQGTQVTVSS | low polyreactivity |
| QVQLVESGGGLVQAGGSLRLSCAASGLIFVSYAMGWYRQAPGKERELVAAISSGGSTYYADSVKGRFTISRDNAKNTVSLQMTSLKPEDTAVYYCNADGFYSWLYDYWGQGTQVTVSS | low polyreactivity |
| QVQLVESGGGLVQAGGSLRLSCAASGLIFWEYAMGWYRPAPGNERELVASITWGGGGTYYADSVKGRFTISRYNAKNTVNLHKNSLKPEDTAVYYSAVGPYYQSTQIYDYWGQGTQVTVSS | low polyreactivity |
| QVQLVESGGGLVQAGGSLRLSCAASGLIFWFYAMGWYRQAPGKERELVAAISGDGDSTYYADSVKGRFTISRDHAKNTVYLQMNSLKPEDTAVYYCAAEWDPVFATDEDDYWGQGTQVTVSS | low polyreactivity |
| QVQLVESGGGLVQAGGSLRLSCAASGLIFWYNAMGWDRQATGKEREFVAAITSDGGRTYYADSVKGRFTISRDNAKNTVYLQMNSLKTEDTAVYYCTARGYGYLGRKGGYSYGYYYWGQGTQVTVSS | low polyreactivity |
| QVQLVESGGGLVQAGGSLRLSCAASGLIFWYYAMGWYRQAPGTERELVASISSGGDTTYADSVKGRFTISRDNAKKTVYLQMNSLKPEDTAVYDCAAERYVRVWVAGILHYDYWGQGTQVTGSS | low polyreactivity |
| QVQLVESGGGLVQAGGSLRLSCAASGLIFYAYAMGWYRQAPGKERELVAAISYSGGSTYYADSVKGRFTISRDNAKNTVYLQMNSLKPEDTAVYYCAASYISVYWRWYEYWGQGTQVTVSS | high polyreactivity |

| Sequence | polyreactivity (PSR sort gate) |
| --- | --- |
| QVQLVESGGGLVQAGGSLRLSCAASGLIFYDNMGGYRQAPGKERELVAAISSSGGSTSYADSVKGRFTISRDNAKNTVSLQMNSLNPEDSAVYYCTVSPGVWRSIPLYYNLLYGYWGQGTQVTVSS | low polyreactivity |
| QVQLVESGGGLVQAGGSLRLSCAASGLIFYDNMGWYGPAPGKERELVAAISSSGGSTSYADSVKGRFTISRDNAKNTVYLQMNSLKPEDTAVYYCAADSYPAYLGFVCFDYWGQGTQVTVSS | low polyreactivity |
| QVQLVESGGGLVQAGGSLRLSCAASGLIFYDNMGWYRQAPGKERELVAAISSSGGSTSYADSVKGRFTISRDNAKNTVYLQMNSLKPEDTAVYYCAADVELWVFRGQQYDYWGQGTQVTVSS | low polyreactivity |
| QVQLVESGGGLVQAGGSLRLSCAASGLIFYDNMVWYRQGPGTETELVAAISSSGGSTSYADSVKGRFTISRDNAKNTVYLQMNILKPEDTAVYYCAADSYPAYLGFVCFDYWGQGTEVTVSS | low polyreactivity |
| QVQLVESGGGLVQAGGSLRLSCAASGLIFYDYAMGWYRPAPGKERELVAAITSSDSTYYADSVKGRFTISRDNAQNTVYLQMNSLKPEDTAVYYCAAKPYYFYGMDYWGQGTQVTVSS | high polyreactivity |
| QVQLVESGGGLVQAGGSLRLSCAASGLIFYENAMGWYRQAPGKERELVAAINYDGDSTYYADSVKGRFTISRDNAKNTFYLQLNSLKPEDTAVYYCAADGGWVLFWMDYWGQGTQVTVSS | low polyreactivity |
| QVQLVESGGGLVQAGGSLRLSCAASGLIFYGNAMGWSRQAPGKERELVAAISRRGGRTYYADSVKGRFTISRDNAKNTVYLQMNSLKPEDTAVYYCDADVIYSGDYWGQGTQVTVSS | high polyreactivity |
| QVQLVESGGGLVQAGGSLRLSCAASGLIFYGNAMGWYRQAPVKERELVAAISRRGGRTYYADSVKGRFTISRDNAKNTVYLQMNSLKPEDTAVYYCAAGVPKNGQAGYDYWGQGTQVTVSS | high polyreactivity |
| QVQLVESGGGLVQAGGSLRLSCAASGLIFYGNAMGWYRQAPWKERELVAAITGGGGNTYYADSVKGRFTISRDNAKITFFLQMISLKPEDTAVYYCASASSTAYVRYYYWGQGTQVTVSS | high polyreactivity |
| QVQLVESGGGLVQAGGSLRLSCAASGLIFYINAMGWYRQAPGKERELVAAISSGGSTNYADSVKGRFTISRDNAKNTVYLQMNSLKPEDTAVYYCARDAYLPRIADGDGRYELVDYWGQGTQVTVSS | low polyreactivity |
| QVQLVESGGGLVQAGGSLRLSCAASGLIFYIYMGWYRQAPGKERELVAVISSSGNSTYYADSVKGRFTISRDNEKNTVYLQMNSLKPEDTAVYYCNASAYYPPSSSRYDYWGQGTQVTVSS | low polyreactivity |
| QVQLVESGGGLVQAGGSLRLSCAASGLIFYKYAMGWYRQAPGKERELVASISTGGGSTYYADSVKGRFTISRDNAKNTVYLQMNSLKPEDTAVYYCAARWWRRFRGSHSLYDYWGQGTQVTVSS | high polyreactivity |
| QVQLVESGGGLVQAGGSLRLSCAASGLIFYRNAMGWYRQAPGKERELVAAISKNGGNTYYADSVKGRFTISRDNAKNTVYLQMYSLKPEDTAVYYCAARELYGPFGYWGQGTQVTVSS | high polyreactivity |
| QVQLVESGGGLVQAGGSLRLSCAASGLIFYRNAMGWYRQAPGKERELVAGISASGGRTYYADSVNGRFTISRDNAKNTVYLQMNSLKPEDTAVYYCNRPSIYRYPQRLLGNFWGQGTQVTVSS | high polyreactivity |
| QVQLVESGGGLVQAGGSLRLSCAASGLIFYRYAMGWYRQAPGKERELVAAISRSGSSTYYADSVKGRFTISRDNAKNTFYLQINSLKPEDTAVYYCNAGYGWIWDDRGYWGQGTQVTVSS | high polyreactivity |
